In the supplement of paper PMC9112550, “Optimization of the antimicrobial peptide Bac7 by deep mutational scanning” (BMC Biology, 2022):
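Note: peptides expressed intracellularly from a pBAD plasmid library in pooled LB shake-flask culture, induced with 0.3% L-arabinose, DNA abundance read by NGS, three biological replicates, DESeq2 with apeglm shrinkage.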

Each sequence was assayed on Escherichia coli TOP10 (assay: shrunken log2 fold change of peptide-encoding DNA abundance (4.5 h post-induction vs induction); higher = less antimicrobial activity (less host growth inhibition)). Settings: time post-induction: 4.5 h; library: site-saturation at positions 5, 18, 19, 20.
In the case of RRIRQRPPRLPRPRPRPPDGPRP, the “shrunken log2 fold change” value is reported as 0.351. For RRIRNRPPRLPRPRPRPNCLPRP, the “shrunken log2 fold change” value was -0.116. RRIRKRPPRLPRPRPRPVGIPRP was tested, and the “shrunken log2 fold change” value was 0.131. With RRIRVRPPRLPRPRPRPDDCPRP the “shrunken log2 fold change” value was -0.197. RRIRVRPPRLPRPRPRPQVYPRP was tested, and the “shrunken log2 fold change” value was -0.0131. With RRIRYRPPRLPRPRPRPTYKPRP the “shrunken log2 fold change” value was -1.17. With RRIRRRPPRLPRPRPRPYCRPRP the “shrunken log2 fold change” value was -0.503. For RRIRFRPPRLPRPRPRPNRSPRP, the “shrunken log2 fold change” value was -0.299. For RRIRWRPPRLPRPRPRPDVAPRP, the “shrunken log2 fold change” value was 1.3. In the case of RRIRTRPPRLPRPRPRPMNRPRP, the “shrunken log2 fold change” value is reported as -0.0804. In the case of RRIRCRPPRLPRPRPRPCKCPRP, the “shrunken log2 fold change” value is reported as -0.0236. RRIRCRPPRLPRPRPRPVGLPRP was tested, and the “shrunken log2 fold change” value was 0.0659. RRIRWRPPRLPRPRPRPKTFPRP was tested, and the “shrunken log2 fold change” value was -0.0777. RRIRSRPPRLPRPRPRPEMQPRP was tested, and the “shrunken log2 fold change” value was 0.0419. RRIRQRPPRLPRPRPRPNKVPRP was tested, and the “shrunken log2 fold change” value was -0.468. For RRIRRRPPRLPRPRPRPWEEPRP, the “shrunken log2 fold change” value was 0.158. For RRIRCRPPRLPRPRPRPSYCPRP, the “shrunken log2 fold change” value was -0.342. RRIRLRPPRLPRPRPRPGESPRP was tested, and the “shrunken log2 fold change” value was 0.0313. RRIRWRPPRLPRPRPRPPKTPRP was tested, and the “shrunken log2 fold change” value was 0.199. RRIRSRPPRLPRPRPRPKTAPRP was tested, and the “shrunken log2 fold change” value was 0.097. With RRIRGRPPRLPRPRPRPNGNPRP the “shrunken log2 fold change” value was 0.0103. With RRIRARPPRLPRPRPRPEYFPRP the “shrunken log2 fold change” value was 0.188. For RRIRPRPPRLPRPRPRPGPDPRP, the “shrunken log2 fold change” value was 0.28. RRIRSRPPRLPRPRPRPMRSPRP was tested, and the “shrunken log2 fold change” value was 0.0162. With RRIRCRPPRLPRPRPRPVINPRP the “shrunken log2 fold change” value was -0.116. In the case of RRIRLRPPRLPRPRPRPGHCPRP, the “shrunken log2 fold change” value is reported as 0.0372. With RRIRYRPPRLPRPRPRPWKKPRP the “shrunken log2 fold change” value was 0.00843. With RRIRTRPPRLPRPRPRPMARPRP the “shrunken log2 fold change” value was 0.193. In the case of RRIRCRPPRLPRPRPRPKMRPRP, the “shrunken log2 fold change” value is reported as -0.00909. In the case of RRIRCRPPRLPRPRPRPQRNPRP, the “shrunken log2 fold change” value is reported as -0.0392. In the case of RRIRFRPPRLPRPRPRPTLDPRP, the “shrunken log2 fold change” value is reported as 0.0939. With RRIRCRPPRLPRPRPRPENFPRP the “shrunken log2 fold change” value was -0.32. RRIRKRPPRLPRPRPRPWRQPRP was tested, and the “shrunken log2 fold change” value was 0.182. In the case of RRIRDRPPRLPRPRPRPWCSPRP, the “shrunken log2 fold change” value is reported as -0.348. RRIRMRPPRLPRPRPRPIYRPRP was tested, and the “shrunken log2 fold change” value was -0.0679. In the case of RRIRQRPPRLPRPRPRPHAFPRP, the “shrunken log2 fold change” value is reported as -0.0738. In the case of RRIRSRPPRLPRPRPRPRMIPRP, the “shrunken log2 fold change” value is reported as -0.086. In the case of RRIRSRPPRLPRPRPRPSLNPRP, the “shrunken log2 fold change” value is reported as -0.142. RRIRDRPPRLPRPRPRPVAVPRP was tested, and the “shrunken log2 fold change” value was 0.453. RRIRDRPPRLPRPRPRPNPMPRP was tested, and the “shrunken log2 fold change” value was -0.0935. In the case of RRIRNRPPRLPRPRPRPLIMPRP, the “shrunken log2 fold change” value is reported as -0.48. RRIRPRPPRLPRPRPRPFHMPRP was tested, and the “shrunken log2 fold change” value was -0.301. In the case of RRIRPRPPRLPRPRPRPCEGPRP, the “shrunken log2 fold change” value is reported as 0.156. In the case of RRIRKRPPRLPRPRPRPINMPRP, the “shrunken log2 fold change” value is reported as -0.196. RRIRIRPPRLPRPRPRPIMDPRP was tested, and the “shrunken log2 fold change” value was -0.364. For RRIRDRPPRLPRPRPRPMKNPRP, the “shrunken log2 fold change” value was -0.0366. RRIRFRPPRLPRPRPRPQKCPRP was tested, and the “shrunken log2 fold change” value was -0.332. For RRIRHRPPRLPRPRPRPVTLPRP, the “shrunken log2 fold change” value was -0.175. For RRIRCRPPRLPRPRPRPTAWPRP, the “shrunken log2 fold change” value was 0.79. For RRIRNRPPRLPRPRPRPKCDPRP, the “shrunken log2 fold change” value was -0.471. For RRIRARPPRLPRPRPRPDAKPRP, the “shrunken log2 fold change” value was 0.338. For RRIRNRPPRLPRPRPRPKGPPRP, the “shrunken log2 fold change” value was 0.0947. For RRIRFRPPRLPRPRPRPGASPRP, the “shrunken log2 fold change” value was 0.109. With RRIRPRPPRLPRPRPRPRNFPRP the “shrunken log2 fold change” value was 0.192. RRIRWRPPRLPRPRPRPHKEPRP was tested, and the “shrunken log2 fold change” value was -0.0233. For RRIRHRPPRLPRPRPRPQQKPRP, the “shrunken log2 fold change” value was -0.0153. For RRIRVRPPRLPRPRPRPAPRPRP, the “shrunken log2 fold change” value was 0.634. With RRIRCRPPRLPRPRPRPQQCPRP the “shrunken log2 fold change” value was -0.219. In the case of RRIRGRPPRLPRPRPRPGFEPRP, the “shrunken log2 fold change” value is reported as 0.813. In the case of RRIRRRPPRLPRPRPRPMPHPRP, the “shrunken log2 fold change” value is reported as -0.124. RRIRWRPPRLPRPRPRPDPQPRP was tested, and the “shrunken log2 fold change” value was -0.00387. In the case of RRIRVRPPRLPRPRPRPKCRPRP, the “shrunken log2 fold change” value is reported as 0.224. For RRIRARPPRLPRPRPRPGTHPRP, the “shrunken log2 fold change” value was 0.173. With RRIRDRPPRLPRPRPRPYLRPRP the “shrunken log2 fold change” value was -0.0137. In the case of RRIRHRPPRLPRPRPRPHFGPRP, the “shrunken log2 fold change” value is reported as -0.00776. With RRIRHRPPRLPRPRPRPPAHPRP the “shrunken log2 fold change” value was 0.0763. For RRIRARPPRLPRPRPRPIIKPRP, the “shrunken log2 fold change” value was -0.09. In the case of RRIRSRPPRLPRPRPRPQWTPRP, the “shrunken log2 fold change” value is reported as -0.0105. In the case of RRIRIRPPRLPRPRPRPDCMPRP, the “shrunken log2 fold change” value is reported as -0.106. With RRIRVRPPRLPRPRPRPYMDPRP the “shrunken log2 fold change” value was -0.0331. RRIRNRPPRLPRPRPRPACYPRP was tested, and the “shrunken log2 fold change” value was -0.265. For RRIRWRPPRLPRPRPRPLQHPRP, the “shrunken log2 fold change” value was 0.394. RRIRKRPPRLPRPRPRPPIGPRP was tested, and the “shrunken log2 fold change” value was 0.407. With RRIRARPPRLPRPRPRPSEYPRP the “shrunken log2 fold change” value was -0.264. RRIRMRPPRLPRPRPRPNPDPRP was tested, and the “shrunken log2 fold change” value was 0.377. With RRIRYRPPRLPRPRPRPVQSPRP the “shrunken log2 fold change” value was -0.017. For RRIRMRPPRLPRPRPRPHQGPRP, the “shrunken log2 fold change” value was 0.013. In the case of RRIRERPPRLPRPRPRPRFYPRP, the “shrunken log2 fold change” value is reported as -0.115. RRIRKRPPRLPRPRPRPFSIPRP was tested, and the “shrunken log2 fold change” value was -0.0639. RRIRQRPPRLPRPRPRPRGYPRP was tested, and the “shrunken log2 fold change” value was -0.00234. For RRIRYRPPRLPRPRPRPTFEPRP, the “shrunken log2 fold change” value was -0.274. RRIRGRPPRLPRPRPRPYALPRP was tested, and the “shrunken log2 fold change” value was 0.0375. RRIRIRPPRLPRPRPRPNCTPRP was tested, and the “shrunken log2 fold change” value was -0.663. With RRIRCRPPRLPRPRPRPNPFPRP the “shrunken log2 fold change” value was -0.024. For RRIRQRPPRLPRPRPRPAEWPRP, the “shrunken log2 fold change” value was -0.357. RRIRMRPPRLPRPRPRPGQDPRP was tested, and the “shrunken log2 fold change” value was 0.781. For RRIRGRPPRLPRPRPRPPDKPRP, the “shrunken log2 fold change” value was 1.17. In the case of RRIRSRPPRLPRPRPRPEWFPRP, the “shrunken log2 fold change” value is reported as -0.287. For RRIRERPPRLPRPRPRPSFSPRP, the “shrunken log2 fold change” value was -0.765. With RRIRERPPRLPRPRPRPGDVPRP the “shrunken log2 fold change” value was -0.159. In the case of RRIRVRPPRLPRPRPRPDWPPRP, the “shrunken log2 fold change” value is reported as 0.334. In the case of RRIRTRPPRLPRPRPRPGRSPRP, the “shrunken log2 fold change” value is reported as 0.194. In the case of RRIRRRPPRLPRPRPRPKCMPRP, the “shrunken log2 fold change” value is reported as -0.172. With RRIRWRPPRLPRPRPRPMFTPRP the “shrunken log2 fold change” value was -0.0283.
